Experimental data: patent publication JP2022142155A (dated 2022)
Each block holds one binder with its values, some of them ahead of it.

Target: T1, ヒト血清アルブミン (human, UniProt P02768 25-609)
T1 construct: also called HSA; HSA
Assay: SPR (Biacore T200), HSA amine-coupled on CM5 chip, VHH as analyte

T1 sequence (P02768 25-609 limits assumed): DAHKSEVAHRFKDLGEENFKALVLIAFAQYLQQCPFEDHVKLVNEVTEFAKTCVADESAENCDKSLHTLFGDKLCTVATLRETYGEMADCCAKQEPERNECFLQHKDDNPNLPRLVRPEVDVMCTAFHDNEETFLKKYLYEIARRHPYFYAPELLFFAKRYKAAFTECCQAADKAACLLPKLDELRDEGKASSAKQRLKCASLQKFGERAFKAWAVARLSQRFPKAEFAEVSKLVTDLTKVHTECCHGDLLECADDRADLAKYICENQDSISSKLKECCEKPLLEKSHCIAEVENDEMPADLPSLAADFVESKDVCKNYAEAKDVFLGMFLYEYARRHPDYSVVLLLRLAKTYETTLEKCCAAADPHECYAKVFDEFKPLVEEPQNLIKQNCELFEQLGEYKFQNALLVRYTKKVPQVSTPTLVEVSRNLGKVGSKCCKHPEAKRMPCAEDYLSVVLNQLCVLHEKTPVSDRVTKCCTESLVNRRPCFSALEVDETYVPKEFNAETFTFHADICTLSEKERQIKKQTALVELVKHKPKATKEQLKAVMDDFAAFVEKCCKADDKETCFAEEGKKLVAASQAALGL

B1: 配列番号:39により表されるアミノ酸配列を含む抗HSA抗体 (VHH)
VHH: QLQLVESGGGLVQAGGSLRLSCAASGRTFRFSAMGWFRQAPGKEREFAAAISWTGGTTAYAESVKGRFIISRDNAKNTVYLQMNSLKPEDTAVYYCAAGPIPSPASRYDDWGQGTQVTVSS
notes: Expressed in E. coli from pRA2(+); also called H14A; H14A; not shown: C-terminal His tag from vector pRA2(+) (Ni-NTA purification, anti-His detection)
Kd: 296 nM

B5: 配列番号:38により表されるアミノ酸配列を含む抗HSA抗体 (VHH)
VHH: QVQLVESGGGLVQTGGSLRLSCAASGRIVTVAAMGWFRQAPGKEREFVASISWSGRSRSYADSVKGRFTISRDNAKNTAYLQMSSLKPEDTGVYYCALGGNSYSSDYARYDYWGQGTQVTVSS
notes: Expressed in E. coli from pRA2(+); also called H10A; H10A; not shown: C-terminal His tag from vector pRA2(+) (Ni-NTA purification, anti-His detection)
Kd: 124 nM

These reach a lower Kd. Values come first.

Kd: 62.2 nM
B2: 配列番号:37により表されるアミノ酸配列を含む抗HSA抗体 (VHH)
VHH: EVQLVESGGGLVHPGGSLRLSCVASGSDVSSDTMGWFRRAPGKQRELVAAIAWGGSTHYAESVKGRFTISRDNAKNTVYLQLSNLKPEDTAVYLCNTRNYWGQGTQVTVSS
notes: Expressed in E. coli from pRA2(+); also called H08A; H08A; not shown: C-terminal His tag from vector pRA2(+) (Ni-NTA purification, anti-His detection)

Kd: 22.9 nM
B3: 配列番号:36により表されるアミノ酸配列を含む抗HSA抗体 (VHH)
VHH: EVQLVESGGGFVQPGGSLRLSCVASGFTFERFDMGWVRQAPGKSLEWVSRFNSDDGRKSYADSVKGRFAISRDNAENTLYLQMNNLIPEDTAMYYCVKCQAYTSCTDAEDRGQGTQVTVSS
notes: Expressed in E. coli BL21(DE3) pLysS from pRA2(+) behind a vector-encoded leader; also called H01A; H01A; not shown: C-terminal His tag from vector pRA2(+) (Ni-NTA purification, anti-His detection)

Kd: 0.077 nM
B4: 配列番号:40により表されるアミノ酸配列を含む抗HSA抗体 (VHH)
VHH: QVQLVESGGGLVQAGKSLRLSCTASGSIPSIGVTGWHRQAPGKQRELVATISQGGHINYFESVKGRFTISRDNAKNTVYLQMNSLKPEDTGVYYCNAFWLPLRLNDYWGQGTQVTVSS
notes: Expressed in E. coli from pRA2(+); also called H32A; H32A; not shown: C-terminal His tag from vector pRA2(+) (Ni-NTA purification, anti-His detection)
